Reference: patent publication US20260365743 (published 2026)
Residue numbers refer to the chain shown, from its start. Blank lines part the entries; values can stand above or below the binder they belong to.

Tests used:
Assay in all cases: ELISA
hNPR3 = molecular target: T1, hNPR3 (human, UniProt P17342)
T1 chain: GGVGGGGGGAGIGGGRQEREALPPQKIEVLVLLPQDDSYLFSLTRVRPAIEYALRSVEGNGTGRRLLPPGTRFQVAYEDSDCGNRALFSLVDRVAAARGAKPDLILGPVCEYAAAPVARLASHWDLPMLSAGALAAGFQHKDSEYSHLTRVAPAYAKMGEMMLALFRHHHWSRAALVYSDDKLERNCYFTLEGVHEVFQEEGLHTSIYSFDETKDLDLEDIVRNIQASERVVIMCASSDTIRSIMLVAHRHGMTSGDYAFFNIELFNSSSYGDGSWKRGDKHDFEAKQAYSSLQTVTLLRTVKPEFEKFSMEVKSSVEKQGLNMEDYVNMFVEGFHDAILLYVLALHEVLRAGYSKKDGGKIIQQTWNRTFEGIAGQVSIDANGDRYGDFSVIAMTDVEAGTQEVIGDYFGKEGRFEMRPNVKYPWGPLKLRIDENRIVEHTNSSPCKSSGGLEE

hNPR1 antigen = hNPR1 antigen (human)
Sequence of hNPR1 antigen (human) (chain, as listed by the source): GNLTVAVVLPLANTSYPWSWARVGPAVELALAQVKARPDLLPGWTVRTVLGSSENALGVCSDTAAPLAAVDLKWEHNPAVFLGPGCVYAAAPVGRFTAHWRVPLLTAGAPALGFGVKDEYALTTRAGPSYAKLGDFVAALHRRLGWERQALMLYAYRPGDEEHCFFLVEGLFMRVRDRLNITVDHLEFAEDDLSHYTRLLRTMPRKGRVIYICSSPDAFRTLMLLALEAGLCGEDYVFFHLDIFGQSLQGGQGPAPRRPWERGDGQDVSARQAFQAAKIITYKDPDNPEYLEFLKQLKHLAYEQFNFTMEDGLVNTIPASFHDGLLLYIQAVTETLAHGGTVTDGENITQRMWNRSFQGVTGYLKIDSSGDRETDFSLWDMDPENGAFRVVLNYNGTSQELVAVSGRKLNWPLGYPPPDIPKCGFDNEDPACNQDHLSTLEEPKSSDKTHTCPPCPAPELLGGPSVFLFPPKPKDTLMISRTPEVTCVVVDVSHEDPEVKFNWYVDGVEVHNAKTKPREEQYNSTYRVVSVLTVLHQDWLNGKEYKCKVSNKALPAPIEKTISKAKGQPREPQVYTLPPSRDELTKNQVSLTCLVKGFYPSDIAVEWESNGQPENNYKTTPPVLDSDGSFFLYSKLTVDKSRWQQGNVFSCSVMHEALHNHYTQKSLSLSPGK

hNPR2 = molecular target: T2, hNPR2 (human, UniProt P20594)
T2 chain: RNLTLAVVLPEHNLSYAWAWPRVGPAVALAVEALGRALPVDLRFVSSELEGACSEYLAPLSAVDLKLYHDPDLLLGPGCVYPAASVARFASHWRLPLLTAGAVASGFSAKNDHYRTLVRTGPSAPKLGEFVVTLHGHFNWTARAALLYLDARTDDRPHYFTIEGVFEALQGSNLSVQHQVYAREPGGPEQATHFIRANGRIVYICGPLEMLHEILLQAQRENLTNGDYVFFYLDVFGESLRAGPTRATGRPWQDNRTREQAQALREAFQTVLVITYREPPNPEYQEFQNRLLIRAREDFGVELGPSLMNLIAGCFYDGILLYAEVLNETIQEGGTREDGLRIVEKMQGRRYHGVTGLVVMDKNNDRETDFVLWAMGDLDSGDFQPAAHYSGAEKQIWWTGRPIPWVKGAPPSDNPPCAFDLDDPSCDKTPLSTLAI

binding result (hNPR3): no binding
binding result (hNPR1 antigen): no binding
binding result (hNPR2): no binding
B1: RC25 V (antibody, V domains shown)
VH: QVQLVQSGAEVKKPGASVKVSCKASGYTFTNSWIGWFRQAPGQGLEWIGDIYPGGGYTNYNEIFKGKATMTADTSTNTAYMELSSLRSEDTAVYYCSRGIPGYAMDYWGQGTLVTVSS
VL: DIQMTQSPSSLSASVGDRVTMSCKSSQSLLNSGDQKNYLTWYQQKPGKAPKLLIYWASTGESGVPSRFSGSGSGTDFTFTISSLQPEDIATYYCQNDYSYPWTFGQGTKVEIKR

binding result (hNPR3): no binding
binding result (hNPR2): no binding
B2: Hu135H3L1 (antibody, V domains shown)
VH: DVKLVESGEGLVKPGGSLRLSCAASGFSISTYGMSWVRQAPGKRLEWVAYINSGGNYIYYADSVKGRFTISRDNAKNSLYLQMNSLRAEDTAVYYCTRDRTTIVVHWYFDVWGQGTTVTVSS
VL: DIQLTQSPSSLSASVGDRVTITCSASSSLNFMHWYQQKPGKSPKRWIYDTSKLASGVPSRFSGSGSGTDYTLTISSLQPEDFATYYCHQRSSTFGGGTKVEIK

binding result (hNPR3): no binding
binding result (hNPR2): no binding
B3: Hu102H4L6 (antibody, V domains shown)
VH: B2 VH with S28T, I29F, T31S, G33A, N52S, S53R, N56D, T91S, R100Q, I103V
VL: DIQLTQSPSSLSASVGDRVTITCSASSSINYMHWYQQKPGKSPKRWIYDTSKLASGVPSRFSGSGSGTDYTLTISSLQPEDFATYYCHQRNSYTFGGGTKVEIK

binding result (hNPR3): no binding
binding result (hNPR2): no binding
B4: Hu128H3L1-6 (antibody, V domains shown)
VH: EVQLVQSGAEVKKPGASVKVSCKASGYTFTSYWMHWVRQAPGQGLEWMGRIDPNSGVTKYNEKFKSRVTLTVDKPSSPAYMELSSLRSEDTAVYYCARSSYLGRYFDVWGQGTTVTVSS
VL: EIVLTQSPATLSLSPGERATLKCSATSSVSYMYWYQQKPGQAPRLLIYDTYNLGSRIPARFSGSGSGTDYTLTISRLEPEDFAVYYCQQWSSYPPTFGQGTKLEIK

binding result (hNPR3): no binding
binding result (hNPR2): no binding
B5: Hu140H5L5-11 (antibody, V domains shown)
VH: B4 VH with E1Q, S100G, Y101G, G103R
VL: B4 VL with T20Q, K22S, T26S, G54A, R56G, I57V, A59D, D69S, Q99A
